Assay [1] concerns the target T1, CD22 on cynomolgus monkey peripheral blood B cells (cynomolgus monkey (Macaca fascicularis)).
T1 construct: whole, on cells; also called cynomolgus monkey B cells
The assay is described as follows: FACS, cynomolgus PBMC, CD20+ B cells, antibody 10 nM. The source says:
(§1) The monkey peripheral blood mononuclear cells were extracted from fresh cynomolgus monkey peripheral blood (purchased from Shanghai Medicilon Inc.) according to the instructions of Ficoll-Paque Plus (purchased from GE Healthcare, catalog number: 171440-02). After the cell suspension was centrifuged, the cells were resuspended in PBS containing 1% BSA, and then the cells were counted. At the same time, the murine antibody Brilliant Violet 605 anti-human CD20 (catalog number: 302334, purchased from Biolegend) with monkey CD20 cross-binding activity and the chimeric antibodies to be tested (1 nM, 10 nM and 100 nM) were added and incubated at room temperature for 1 hour. After washing the cells three times, APC-labeled secondary antibody anti-human IgG Fc (catalog number: 409306, purchased from Biolegend) was added. After incubation at room temperature in the dark for 30 minutes, the cells were washed 5 times, gently resuspended with PBS containing 1% BSA, and detected and analyzed by FACS (FACS Canto™, purchased from BD Company). Wherein CD20 was used as a marker of B cells, and the CD20-positive B cell population was gated, the proportion of chimeric antibody positive cells was analyzed, and the proportion of chimeric antibody positive cell population to B cell population was calculated after treatments with the chimeric antibodies at the concentrations of 100 nM, 10 nM and 1 nM, respectively. The scatter plot of double-stained cells by Brilliant Violet 605-labeled CD20 and APC secondary antibody indirectly labeled chimeric antibody is shown in FIG. 10A-FIG. 10B (under the condition of 1 nM of chimeric antibody concentration).

Assay [2] deals with T2, monkey CD22 protein (ACROBiosystems, catalog number SI2-R52Ha) (monkey, UniProt F6W485 20-688).
T2 construct: commercial protein; also called monkey CD22-ECD; monkey CD22-ECD-His
T2 sequence: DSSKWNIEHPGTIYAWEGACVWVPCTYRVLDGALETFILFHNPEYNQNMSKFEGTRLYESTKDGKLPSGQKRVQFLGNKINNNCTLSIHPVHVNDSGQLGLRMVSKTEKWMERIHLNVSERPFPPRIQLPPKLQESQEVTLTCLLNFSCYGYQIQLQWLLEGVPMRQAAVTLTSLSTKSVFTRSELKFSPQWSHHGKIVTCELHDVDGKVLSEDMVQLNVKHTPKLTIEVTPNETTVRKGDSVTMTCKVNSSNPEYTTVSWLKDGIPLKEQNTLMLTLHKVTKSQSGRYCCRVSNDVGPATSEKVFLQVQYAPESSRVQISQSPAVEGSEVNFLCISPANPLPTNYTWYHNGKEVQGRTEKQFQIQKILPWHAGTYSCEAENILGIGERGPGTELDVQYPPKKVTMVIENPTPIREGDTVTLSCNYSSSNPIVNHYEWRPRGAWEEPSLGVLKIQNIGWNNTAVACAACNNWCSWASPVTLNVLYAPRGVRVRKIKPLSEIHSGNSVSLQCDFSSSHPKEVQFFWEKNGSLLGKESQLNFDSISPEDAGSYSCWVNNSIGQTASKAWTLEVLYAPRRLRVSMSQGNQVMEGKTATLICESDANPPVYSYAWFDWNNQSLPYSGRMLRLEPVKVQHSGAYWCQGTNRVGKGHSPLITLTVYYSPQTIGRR
The assay is described as follows: ELISA, coated monkey CD22 protein, antibody 0.01 nM. The procedure:
(§2) In order to detect the binding activity of CD22 human-murine chimeric antibodies to CD22 protein, the purified human CD22-ECD-His protein obtained in Example 2 was diluted with PBS to a final concentration of 2 μg/mL, and then added to 96-well ELISA plate at 100 μl/well. The plate was sealed with plastic film and incubated overnight at 4° C., the plate was washed 2 times with PBS the next day, and then a blocking solution [PBS+2% (w/w) BSA] was added for blocking at room temperature for 2 hours. […] After incubation at 37° C. for 2 hours, the plate was washed 3 times with PBS. HRP (horseradish peroxidase)-labeled secondary antibody (purchased from Sigma, catalog number: A0170) was added, and incubated at 37° C. for 2 hours, and the plate was washed 5 times with PBS. TMB substrate was added at 50 μl/well, and incubated at room temperature for 30 minutes, then a stop solution (1.0 N HCl) was added at 50 μl/well.
(§3) In order to detect the species cross-binding activity of the chimeric antibodies, an ELISA plate was coated with commercial murine CD22 protein (ACROBiosystems, catalog number: SI2-M52Ha) and monkey CD22 protein (ACROBiosystems, catalog number: SI2-R52Ha), respectively, and the ELISA detection was performed according to the method in Example 5.1.
(In general: ELISA stands for enzyme-linked immunosorbent assay.)

Assay [3] deals with T2, monkey CD22 protein (ACROBiosystems, …). The assay is described as follows: ELISA, coated monkey CD22 protein, antibody 10 nM. The procedure: as §2, §3
Assay [4] has as its target T1, CD22 on cynomolgus monkey peripheral …. Put plainly: FACS, cynomolgus PBMC, CD20+ B cells, antibody 100 nM.
Excerpt: as §1
In general terms: A flow cytometer gives signals particle by particle.

The target of assay [5] is T2, monkey CD22 protein (ACROBiosystems, …). Put plainly: ELISA, coated monkey CD22 protein, antibody 0.001 nM. As for the experimental part: as §2, §3
The target is the same in assay [6]. The assay is described as follows: ELISA, coated monkey CD22 protein, antibody 0.0001 nM. As for the experimental part:
as §2, §3

Assay [7] shares this target. The assay is described as follows: ELISA, coated monkey CD22 protein, antibody 0.1 nM. The procedure: as §2, §3
The target in assay [8] is T1, CD22 on cynomolgus monkey peripheral …. The assay is described as follows: FACS, cynomolgus PBMC, CD20+ B cells, antibody 1 nM.
Excerpt: as §1

For assay [9], the target named is T2, monkey CD22 protein (ACROBiosystems, …). Put plainly: ELISA, coated monkey CD22 protein, antibody 100 nM. The procedure:
as §2, §3

Assay [10] shares this target. The assay is described as follows: ELISA, coated monkey CD22 protein, antibody 0.00001 nM. The procedure: as §2, §3

Experimental findings from patent publication US20240084003A1 (SIMCERE ZAIMING PHARMACEUTICAL, published 2024) are described below.

B1: F1.280.1 (antibody, human IgG1, kappa, V domains shown)
VH: QIQLVQSGPELKKPGETVKISCKASGYTFTTYGMSWVKQTPGKGLTWMGWINTDSGVPTYADDFKRRFAFSLEASATTAYLQINNLKNEDTATYFCARGGPDYWGQGTTLTVSS
VL: DILLTQSPATLSVTPGETVSLSCRASQSIYKNLHWYHQKSHRSPRLLIKYASDSISGIPSRFTGSGSGTNFTLSINSVKPEDEGIYYCLQGYIVPLTFGAGTKLELKR
notes: human-murine chimeric IgG1 kappa
With B1, the “Proportion of chimeric antibody positive cells to B cells (%)” value (from here on “Proportion … (%)”) came out at 18% in assay [1], 35% in [4] and 19% in assay [8]. For the same molecule, the OD450 in assay [2] amounted to 0.05 OD450; in [3], 0.08 OD450; in assay [5], 0.06 OD450; in [6], 0.06 OD450; in [7], 0.06 OD450; in [9], 0.2 OD450. Besides, the OD450 in assay [10] stood at 0.06 OD450.

B2: F2.99.1 (antibody, human IgG1, lambda, V domains shown)
VH: QVTLKESGPGILQPSQTLSLTCSFSGFSLSTFPMGVGWIRQPSGKGLEWLAHIWWDDDEYYNPVLKSRLTISKDTSKKQVYLRIANVDTVDTATYYCTRANWDRWYFDVWGTGTTVTVSS
VL: QLVLTQSSSASFSLGASAKLTCTLSRQHSAYTIEWYQQQPLKPPKYVMEVKKDGSHSTGDGIPDRFSGSSSGADRYLSISNIQPEDEAIYICGVGDTIKEHFVFGGGTKVTVLG
notes: human-murine chimeric IgG1 lambda; VL name legible
For B2, the “Proportion … (%)” value in [1] stood at 16%; in assay [4], 22%; in assay [8], 19%. Besides, the OD450 in assay [2] is 0.07 OD450; in assay [3] it was 1.03 OD450; in assay [5] it was 0.05 OD450; in [6] it was 0.05 OD450; in assay [7] it was 0.27 OD450; in assay [9], 1.37 OD450. This molecule also gave an OD450 in [10] of 0.05 OD450.

B3: F2.42.9 (antibody, human IgG1, lambda, V domains shown)
VH: QVTLKESGPGILQPSQTLSLTCSFSGFSLSTFDRGVGWIRQPSGKGLEWLAHIWWNDKKFYNPVLKSRLTISKDTSKNQVFLTIANVDSADTATYSCARIVWDKYYFDYWGQGIPLTVSS
VL: QLVLTQSSSASFSLGASAKLTCTLSSQHSAYTIEWYQQQPLKPPKFVMDLKKDGSHSTGDGIPARFSGSSSGADRYLTISNIQPEDEAIYICGVGDTIKEQYVFGGGTKVTVLG
notes: as for B2
On to B3, for which the “Proportion … (%)” value in [1] turned out to be 20%; in [4], 23%; in [8] it was 20%. For the same molecule, the OD450 is 0.25 OD450 in [2]; 1.65 OD450 in assay [3]; 0.09 OD450 in [5]; 0.07 OD450 in assay [6]; 0.95 OD450 in assay [7]; 2.42 OD450 in [9]. In assay [10], this molecule came in with an OD450 of 0.07 OD450.
